The target in experiment [1] is T1, hIL-11Rα (Homo sapiens, UniProt Q14626).
T1 sequence (Q14626 23-422): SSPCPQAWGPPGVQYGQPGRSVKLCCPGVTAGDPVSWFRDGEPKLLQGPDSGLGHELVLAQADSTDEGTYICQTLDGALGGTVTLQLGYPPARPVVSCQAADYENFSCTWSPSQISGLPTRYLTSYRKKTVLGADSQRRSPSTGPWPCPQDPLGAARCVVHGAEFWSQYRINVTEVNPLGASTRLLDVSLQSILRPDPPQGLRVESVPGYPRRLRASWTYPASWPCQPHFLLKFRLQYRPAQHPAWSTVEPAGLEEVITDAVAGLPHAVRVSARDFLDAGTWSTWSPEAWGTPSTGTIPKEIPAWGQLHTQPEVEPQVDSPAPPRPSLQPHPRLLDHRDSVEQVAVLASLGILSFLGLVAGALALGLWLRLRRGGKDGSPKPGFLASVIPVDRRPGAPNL
Put plainly: Kinetic binding analysis by biolayer interferometry (protein G biosensors, Octet RED96e). How it is done:
Association was carried out in the presence of a 2-fold dilution series of hIL-11Rα and was allowed to proceed for 120 seconds; dissociation was measured for 300 to 1200 seconds.

Experiment [2] deals with IL-11 signaling (STAT3 Reporter (Luciferase)-HEK293 cell line). In words: Cell-based STAT3 reporter (luciferase) HEK293 assay for inhibiting IL-11 signaling. Also on record: species or system human. As for the experimental part: Further testing of the lead mAbs was carried out using a cell-based reporter assay. IL-11 is reported to signal through the STAT3 and ERK pathways. Therefore, a STAT3 reporter cell line in which firefly luciferase gene expression is driven by STAT3 response elements located upstream of a minimal TATA promoter was selected to analyze mAb functional activity. In these cells, IL-11 can activate the endogenous STAT3 allowing it to bind to the STAT3 response elements, inducing transcription of the luciferase reporter gene and resulting in readily detectable luciferase expression. Antibodies to IL-11R which block IL-11 signaling should inhibit expression of IL-11 driven luciferase in these cells.
The STAT3 Reporter (Luciferase)—HEK293 cell line (BPS Bioscience, catalog #79800-P) was grown, passaged, and assayed as per manufacturer's protocols. Cells were added at 25,000 cells per well in a 96-well microtiter dish and incubated at 37° C. for 30-45 min. in 5% CO2 humidified air. Anti-IL-11R mAbs were added as a 3-fold dilution series in duplicate columns or rows, and plates were returned to the incubator for an additional 1 h at 37° C. after which 40 ng/mL IL-11 was added to each well to initiate the signal transduction cascade and luciferase production. Plates were incubated for 18-24 hours at 37° C. and luciferase was detected using a One-Step Luciferase Assay System (BPS Bioscience, cat. no. 60690-1) as per manufacturer's instructions.

Experimental findings from patent US12365738B2, “Method of treating an interleukin-11-associated or -mediated fibrotic disease or condition by administering an anti-interleukin-11 receptor subunit alpha (IL-11RA) antibody” (Lassen Therapeutics, Inc., priority 2021, dated 2025) are described below.

Numbering of substitutions follows the chain as printed. In names and notes the source's numbering stands.

B1: mAb14: anti-IL-11Rα antibody, human IgG4 (S228P), kappa; VH SEQ ID NO: 219, VL SEQ ID NO: 220 (antibody, V domains shown)
VH: EVQLLESGGGLVQPGGSLRLSCAASGFTFSWYSMTWVRQAPGKGLEWVSSIVPYGDLTQYAESVKGRFTISRDNSKNTLYLQMNSLRAEDTAVYYCAKGPGWGSFDLWGRGTLVTVSS
VL: DIQMTQSPSSLSASVGDRVTITCQASQDINNYLNWYQQKPGKAPKLLIYDASNLQTGVPSRFSGSGSGTDFTFTISSLQPEDIATYYCQQHESQSPTFGPGTKVDIK
modifications: IgG4 S228P kappa constant regions; mAb14 VH Chain; mAb14 VL Chain
In experiment [1], B1 registered a ka of 33700 M⁻¹ s⁻¹ and a kd of under 1e-07 s⁻¹. In addition, the “potency at inhibiting IL-11 signaling relative to TS7 / 8E2 (in words)” value in experiment [2] is recorded as “comparable in potency to TS7”.

B2: mAb11: anti-IL-11Rα antibody, human IgG4 (S228P), kappa; VH SEQ ID NO: 213, VL SEQ ID NO: 214 (antibody, V domains shown)
VH: B1 VH with P53D, E62D
VL: B1 VL
modifications: IgG4 S228P kappa constant regions; mAb11 VH Chain; mAb11 VL Chain
In experiment [1], B2 yielded a ka of 32900 M⁻¹ s⁻¹ and a kd of 0.0181 s⁻¹. For the same molecule, the “potency at inhibiting IL-11 signaling relative to TS7 / 8E2 (in words)” value in experiment [2] is “less potent than TS7”.

B3: mAb15: anti-IL-11Rα antibody, human IgG4 (S228P), kappa; VH SEQ ID NO: 221, VL SEQ ID NO: 222 (antibody, V domains shown)
VH: B1 VH with E62D
VL: B1 VL with S93T, S95T
modifications: IgG4 S228P kappa constant regions; mAb15 VH Chain; mAb15 VL Chain
In the case of B3, in experiment [1], the ka stood at 84000 M⁻¹ s⁻¹ and the kd is under 1e-07 s⁻¹. For the same molecule, the “potency at inhibiting IL-11 signaling relative to TS7 / 8E2 (in words)” value in experiment [2] was “comparable in potency to TS7”.

B4: mAb6: anti-IL-11Rα antibody, human IgG4 (S228P), kappa; VH SEQ ID NO: 203, VL SEQ ID NO: 204 (antibody, V domains shown)
VH: B1 VH with E62D
VL: B1 VL with S93F
modifications: human IgG4 S228P and kappa constant regions; mAb6 VH Chain; mAb6 VL Chain
In the case of B4, in experiment [1], the ka is 800000 M⁻¹ s⁻¹ and the kd was under 1e-07 s⁻¹. Moreover, in experiment [2], the “potency at inhibiting IL-11 signaling relative to TS7 / 8E2 (in words)” value is “variable”.

B5: mAb10: anti-IL-11Rα antibody, human IgG4 (S228P), kappa; VH SEQ ID NO: 211, VL SEQ ID NO: 212 (antibody, V domains shown)
VH: B1 VH with P53A, E62D
VL: B1 VL
modifications: IgG4 S228P kappa constant regions; mAb10 VH Chain; mAb10 VL Chain
In the case of B5, in experiment [1], the ka stood at 840000 M⁻¹ s⁻¹ and the kd came out at 0.000416 s⁻¹. The “potency at inhibiting IL-11 signaling relative to TS7 / 8E2 (in words)” value in experiment [2] was “less potent than TS7”.

B6: mAb8: anti-IL-11Rα antibody, human IgG4 (S228P), kappa; VH SEQ ID NO: 207, VL SEQ ID NO: 208 (antibody, V domains shown)
VH: B1 VH with W31S, S33A, T35S, E62D
VL: B1 VL
modifications: human IgG4 S228P and kappa constant regions; mAb8 VH Chain; mAb8 VL Chain
In experiment [1], B6 returned a ka of 65100 M⁻¹ s⁻¹ and a kd of under 1e-07 s⁻¹. The “potency at inhibiting IL-11 signaling relative to TS7 / 8E2 (in words)” value in experiment [2] was “less potent than TS7”.

B7: mAb13: anti-IL-11Rα antibody, human IgG4 (S228P), kappa; VH SEQ ID NO: 217, VL SEQ ID NO: 218 (antibody, V domains shown)
VH: B1 VH with E62D, G99P, P100E, G101D, S104R
VL: B1 VL
modifications: IgG4 S228P kappa constant regions; mAb13 VH Chain; mAb13 VL Chain
In experiment [1], B7 came in with a ka of 66700 M⁻¹ s⁻¹ and a kd of under 1e-07 s⁻¹. Moreover, in experiment [2], the “potency at inhibiting IL-11 signaling relative to TS7 / 8E2 (in words)” value is reported as “more potent at inhibiting IL-11 signaling than either of TS7 or 8E2”.

B8: mAb7: anti-IL-11Rα antibody, human IgG4 (S228P), kappa; VH SEQ ID NO: 205, VL SEQ ID NO: 206 (antibody, V domains shown)
VH: B1 VH with W31N, S33A, T35S, E62D
VL: B1 VL
modifications: human IgG4 S228P and kappa constant regions; mAb7 VH Chain; mAb7 VL Chain
On to B8, for which, in experiment [1], the ka was determined as 63500 M⁻¹ s⁻¹ and the kd was under 1e-07 s⁻¹. Moreover, the “potency at inhibiting IL-11 signaling relative to TS7 / 8E2 (in words)” value in experiment [2] was “less potent than TS7”.

B9: mAb12: anti-IL-11Rα antibody, human IgG4 (S228P), kappa; VH SEQ ID NO: 215, VL SEQ ID NO: 216 (antibody, V domains shown)
VH: B1 VH with E62D, G103Y
VL: B1 VL
modifications: IgG4 S228P kappa constant regions; mAb12 VH Chain; mAb12 VL Chain
In experiment [1], B9 showed a ka of 58100 M⁻¹ s⁻¹ and a kd of under 1e-07 s⁻¹. Moreover, the “potency at inhibiting IL-11 signaling relative to TS7 / 8E2 (in words)” value in experiment [2] is recorded as “comparable in potency to TS7”.

B10: mAb9: anti-IL-11Rα antibody, human IgG4 (S228P), kappa; VH SEQ ID NO: 209, VL SEQ ID NO: 210 (antibody, V domains shown)
VH: B1 VH with S50G, E62D
VL: B1 VL
modifications: human IgG4 S228P and kappa constant regions; mAb9 VH Chain; mAb9 VL Chain
On to B10, for which, in experiment [1], the ka is 62200 M⁻¹ s⁻¹ and the kd was under 1e-07 s⁻¹. Moreover, the “potency at inhibiting IL-11 signaling relative to TS7 / 8E2 (in words)” value in experiment [2] is on record as “more potent at inhibiting IL-11 signaling than either of TS7 or 8E2”.
